Key:
Fao cells [1] = experiment: Insulin-induced Tyr phosphorylation of Myc-IRS-1 in adenovirus-infected Fao cells; format: cell-based, rat; settings: 60 min insulin
Procedure: FIGS. 3a-b show Insulin-induced Tyr phosphorylation of IRS-1^7A in Fao cells. FIG. 3a—Fao cells were infected with Ad-Myc-IRS-1^WT or Ad-Myc-IRS-1^7A at 7×10^7 PFU/ml. Following 48 hours, the cells were starved in serum-free RPMI medium for 16 h and were then treated with insulin for the indicated times. Cell extracts were prepared and samples (1 mg) were subjected to immunoprecipitation (IP) with anti-Myc antibodies. Immunocomplexes were resolved on 7.5% SDS-PAGE and immunoblotted with anti-pY antibodies. In parallel, samples (100 μg) of total cell extracts were resolved on 7.5% SDS-PAGE and immunoblotted with anti-Myc antibodies. FIG. 3b—The bands corresponding to anti-pY/total Myc-IRS-1 were quantified by densitometry and are presented as a bar graph. Results are of a representative experiment carried out in duplicate.
FIGS. 11a-c show the effects of TPA and anisomycin on insulin-stimulated Tyr phosphorylation of IRS-1^WT, IRS-1^7A and IRS-1^408A. Fao cells were infected with Adeno-myc-IRS-1 wild type (WT); the 7A mutant; or the S408A mutant at a titer of 4-6×10^7 PFU/ml. Following 48 hours the cells were deprived of serum for 16 h, and were then treated for 60 min with 200 nM TPA (FIG. 11a), or 50 ng/ml anisomycin (FIG. 11b), followed by treatment with 100 nM insulin for the indicated times. […]

Fao cells [2] = experiment: Effect of inducers of insulin resistance on insulin-stimulated Tyr phosphorylation of IRS-1 in Fao cells; format: cell-based, rat
Procedure: FIGS. 5a-c show the effects of TPA and anisomycin on insulin-induced Tyr phosphorylation of IRS-1^7A in Fao cells. Fao cells were infected with Ad-Myc-IRS-1^WT or Ad-Myc-IRS-1^7A at 7×10^7 PFU/ml. Following 48 hours the cells were deprived of serum for 16 h, and were then treated for 60 min with 200 nM TPA (FIG. 5a); 50 ng/ml of anisomycin (FIG. 5b) or 1 μg/ml of anisomycin (FIG. 5c). This was followed by treatment with 100 nM insulin for 2 min (FIG. 5a) or for the indicated times (FIGS. 5b-c). Cell extracts were prepared, and samples (1 mg) were subjected to immunoprecipitation (IP) with anti-Myc antibodies (FIG. 5a). Immunocomplexes were resolved on 7.5 SDS-PAGE and were immunoblotted with the indicated antibodies. Alternatively, total cell extracts (FIGS. 5b-c) were resolved on 7.5% SDS-PAGE and immunoblotted with the indicated antibodies. Results of a representative of four experiments are presented. The results of two independent experiments done in duplicates were quantified (FIG. 5a, right panel).
FIGS. 6a-b show the dose dependent effect of Palmitic acid on Insulin-induced Tyr phosphorylation of IRS-1 mutants in Fao cells. Fao cells were infected with Ad-Myc-IRS-1^WT or Ad-Myc-IRS-1^7A at 7×10^7 PFU/ml. Following 24 hours the cells were deprived of serum for 12 h, and were then further incubated for 12 h with or without the indicated concentrations of palmitic acid in serum free medium prior to being stimulated with 100 nM insulin for the indicated times. Cell extracts (100 μg) were resolved on 7.5% SDS-PAGE and immunoblotted with anti-PY and anti-Myc antibodies. The results of two independent experiments done in duplicates were quantified.
FIGS. 11a-c show the effects of TPA and anisomycin on insulin-stimulated Tyr phosphorylation of IRS-1^WT, IRS-1^7A and IRS-1^408A. Fao cells were infected with Adeno-myc-IRS-1 wild type (WT); the 7A mutant; or the S408A mutant at a titer of 4-6×10^7 PFU/ml. Following 48 hours the cells were deprived of serum for 16 h, and were then treated for 60 min with 200 nM TPA (FIG. 11a), or 50 ng/ml anisomycin (FIG. 11b), followed by treatment with 100 nM insulin for the indicated times. Cell extracts were prepared, samples (1 mg) were subjected to immunoprecipitation (IP) with anti-Myc antibodies. Immunocomplexes were resolved on 7.5% SDS-PAGE and immunoblotted with anti-PY or anti IRS-1 antibodies.
Infection of Fao cells with adenovirus—Fao cells were grown in RPMI medium containing 10% FCS. At 70% confluence cells were infected with adenoviruses harboring the gene of interest at a titer of 7 10^7 PFU/ml. After incubation for 2 h hours at 37° C., the virus-containing medium was diluted 1:5 in fresh RPMI medium. After 24 h the medium was replaced with a fresh RPMI medium containing 10% FCS. […]

B1: IRS-1^408A: mouse IRS-1 with Ser408 mutated to Ala (protein)
chain: MEQKLISEEDLNMASPPPDTDGFSDVRKVGYLRKPKSMHKRFFVLRAASEAGGPARLEYYENEKKWRHKSSAPKRSIPLESCFNINKRADSKNKHLVALYTRDEHFAIAADSEAEQDSWYQALLQLHNRAKAHHDGAGGGCGGSCSGSSGVGEAGEDLSYDTGPGPAFKEVWQVILKPKGLGQTKNLIGIYRLCLTSKTISFVKLNSEAAAVVLQLMNIRRCGHSENFFFIEVGRSAVTGPGEFWMQVDDSVVAQNMHETILEAMRAMSDEFRPRSKSQSSSSCSNPISVPLRRHHLNNPPPSQVGLTRRSRTESITATSPASMVGGKPGSFRVRASSDGEGTMSRPASVDGSPVSPSTNRTHAHRHRGSSRLHPPLNHSRSIPMPSSRCSPSATSPVSLSSSSTSGHGSTSDCLFPRRSAASVSGSPSDGGFISSDEYGSSPCDFRSSFRSVTPDSLGHTPPARGEEELSNYICMGGKGASTLAAPNGHYILSRGGNGHRYIPGANLGTSPALPGDEAAGAADLDNRFRKRTHSAGTSPTISHQKTPSQSSVASIEEYTEMMPAAYPPGGGSGGRLPGYRHSAFVPTHSYPEEGLEMHHLERRGGHHRPDTSNLHTDDGYMPMSPGVAPVPSNRKGNGDYMPMSPKSVSAPQQIINPIRRHPQRVDPNGYMMMSPSGSCSPDIGGGSSSSSSISAAPSGSSYGKPWTNGVGGHHTHALPHAKPPVESGGGKLLPCTGDYMNMSPVGDSNTSSPSECYYGPEDPQHKPVLSYYSLPRSFKHTQRPGEPEEGARHQHLRLSSSSGRLRYTATAEDSSSSTSSDSLGGGYCGARPESSLTHPHHHVLQPHLPRKVDTAAQTNSRLARPTRLSLGDPKASTLPRVREQQQQQQSSLHPPEPKSPGEYVNIEFGSGQPGYLAGPATSRSSPSVRCPPQLHPAPREETGSEEYMNMDLGPGRRATWQESGGVELGRIGPAPPGSATVCRPTRSVPNSRGDYMTMQIGCPRQSYVDTSPVAPVSYADMRTGIAAEKASLPRPTGAAPPPSSTASSSASVTPQGATAEQATHSSLLGGPQGPGGMSAFTRVNLSPNHNQSAKVIRADTQGCRRRHSSETFSAPTRAGNTVPFGAGAAVGGSGGGGGGGSEDVKRHSSASFENVWLRPGDLGGVSKESAPVCGAAGGLEKSLNYIDLDLAKEHSQDCPSQQQSLPPPPPHQPLGSNEGNSPRRSSEDLSNYASISFQKQPEDRQ
Fao cells [1]
  Tyr phosphorylation level after prolonged insulin treatment (Example 9): reduced to a similar extent
Fao cells [2]; 50 ng/ml anisomycin 60 min
  protection against the inhibitory effects of anisomycin: could not protect
Fao cells [2]; 200 nM TPA 60 min
  protection from the inhibitory effects of TPA on insulin-stimulated Tyr phosphorylation: partially prevented
